B1: CXCL11 (natural protein, human, UniProt O14625 22-94, looked up)
chain: FPMFKRGRCLCIGPGVKAVKVADIEKASIMYPSNNCDKIEVIITLKENKGQRCLNPKSKQARLIIKKVERKNF
notes: human chemokine CXCL11, untagged recombinant protein; source: bought: Peprotech, recombinant, produced in Escherichia coli
B2: CXCL9 (natural protein, human, UniProt Q07325 23-125, looked up)
chain: TPVVRKGRCSCISTNQGTIHLQSLKDLKQFAPSPSCEKIEIIATLKNGVQTCLNPDSADVKELIKKWEKQVSQKKKQKNGKKHQKKKVLKVRKSQRSRQKKTT
notes: human chemokine CXCL9, untagged recombinant protein; source: bought: Peprotech, recombinant, produced in Escherichia coli

Target: the molecule itself
Test: cross-linking; 50 ng chemokine in 20 mM HEPES, 30 min at room temperature without or with phospholipid (brain PE, PC, PS or heart CL; 1:8 chemokine:total lipid molar ratio), then 0.25 mM BS3 for 30 min; SDS-PAGE and immunoblot with anti-chemokine antibodies

Protein	binding result
B1	binds
B2	binds

Source: article PMC8213124, “Chemokines act as phosphatidylserine-bound “find-me” signals in apoptotic cell clearance” (PLoS Biology, 2021)
